Here are results for two substances from US9018138.

One experiment concerns the target integrins. In words: cell-based or functional assay.
Experiment [1] has as its target coxsackievirus-adenovirus receptor (CAR) on 293, PC-3 and PC3-CAR cells (UniProt P78310). In words: cell-based or functional assay.

“CAR ablated and RGD4C re-targeted Fiber (ΔTAYT-RGD), displayed on the capsid of virus AdTrack-RGD4C-2 (from UniProt P11818 1-542; P11818 543-581)” came in with an infection relative to wild type fiber virus with integrins of 5%.

“wild type Adenovirus Serotype 5 (Ad5) Fiber, displayed on the capsid of virus AdTrack-WTFib (from UniProt P11818 1-581)”: in experiment [1], the infection of 293 cells after anti-CAR siRNA knock-down (GFP) is > 50% and the infection of PC3-CAR against PC-3 cells (GFP fluorescence intensity, MOI 100) stood at 26 fold.
